Measurements: the supplement of paper PMC7877785
± gives the uncertainty stated by the source.

Assay: self-splicing fitness, log relative to wild type (ln ratio); higher = more splicing; Tetrahymena group I intron in knt gene, E. coli kanamycin selection, DiMSum; sequences stand for … in CUCUCU…GGAGGGAAAAGUUAUCAGGCAUGCACCUGGUAGCUAGUCUUUAAACCAAUAGAUUGCAUCGGUUUAAAAGGCAAGACCGUCAAAUUGCGGGAAAGGGGUCAACAGCCGUUCAGUACCAAGUCUCAGGGGAAACUUUGAGAUGGCCUUGCAAAGGGUAUGGUAAUAAGCUGACGGACAUGGUCCUAACCACGCAGCCAAGUCCUAAGUCAACAGAUCUUCUGUUGAUAUGGAUGCAGUUCACAGACUAAAUGUCGGUCGGGGAAGAUGUAUUCUUCUCAUAAGAUAUAGUCGGACCUCUCCUUAAUGGGAGCUAGCGGAUGAAGUGAUGCAACACUGGAGCCGCUGGGAACUAAUUUGUAUGCGAAAGUAUAUUGAUUAGUUUUGGAGUACUCGUGGUCG
In short: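 A randomised library covering all eight P1ex-region intron nucleotides was built with the intron in the knt kanamycin-resistance gene on pET-22b(+) and held in E. coli BL21(DE3). Cells were grown overnight at 37°C or 30°C on LB agar, with or without 25 μg/mL kanamycin, plus 100 μg/mL carbenicillin, 50 μM IPTG and 0.2% rhamnose, and pooled colonies were amplicon-sequenced on an Illumina HiSeq 2500. DiMSum fitness is the error-weighted combination of wild-type-normalised replicate fold changes, kanamycin versus none.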

Row | Sequence | self-splicing fitness (ln) (30 °C) | self-splicing fitness (ln) (37 °C)
1 | CAUCAGCAAUAUUACGCGUC | -2.58 ± 0.089 | -0.783 ± 0.086
2 | CAGUAGCAAUAUUACGUUAC | -3.34 ± 0.47 | -2.76 ± 0.3
3 | UGUAAGCAAUAUUACGCCGG | -1.46 ± 0.12 | -0.237 ± 0.13
4 | AGCCAGCAAUAUUACGAUCU | -0.174 ± 0.11 | 0.256 ± 0.1
5 | CGAUAGCAAUAUUACGAGCU | -3.42 ± 0.4 | -3.09 ± 0.35
6 | AGGUAGCAAUAUUACGACUA | -0.0242 ± 0.016 | 0.141 ± 0.034
7 | CCAGAGCAAUAUUACGUUAA | -4.07 ± 0.37 | -2.91 ± 0.29
8 | CAACAGCAAUAUUACGCUGU | -2.11 ± 0.2 | -2.65 ± 0.26
9 | UGUGAGCAAUAUUACGAACU | -0.733 ± 0.14 | 0.203 ± 0.21
10 | AAUCAGCAAUAUUACGUACC | -0.557 ± 0.16 | -0.29 ± 0.18
11 | ACACAGCAAUAUUACGCCCC | -1.66 ± 0.14 | -0.901 ± 0.15
12 | UGCGAGCAAUAUUACGGGAU | -3.78 ± 0.35 | -2.21 ± 0.28
13 | GGUCAGCAAUAUUACGAUGU | -0.0366 ± 0.056 | 0.261 ± 0.076
14 | UACAAGCAAUAUUACGAAAU | -2.52 ± 0.16 | -3.01 ± 0.29
15 | AUGCAGCAAUAUUACGCCAG | -2.18 ± 0.13 | -1.23 ± 0.17
16 | UGGUAGCAAUAUUACGACUG | -0.361 ± 0.25 | -0.806 ± 0.3
17 | CCCAAGCAAUAUUACGUGUG | -2.98 ± 0.071 | -3.12 ± 0.094
18 | ACACAGCAAUAUUACGGAUA | -2.87 ± 0.15 | -2.54 ± 0.15
19 | UAACAGCAAUAUUACGUGGA | -3.11 ± 0.14 | -1.44 ± 0.08
20 | CUCAAGCAAUAUUACGAUAC | -1.63 ± 0.18 | 

Row | Sequence | self-splicing fitness (ln) (30 °C) | self-splicing fitness (ln) (37 °C)
21 | UAUCAGCAAUAUUACGGGCG | 0.0109 ± 0.065 | 0.684 ± 0.088
22 | CCGGAGCAAUAUUACGGCAC |  | -0.904 ± 0.44
23 | CCCUAGCAAUAUUACGCACC |  | -2.9 ± 0.48
24 | UGAAAGCAAUAUUACGGGCU | -2.04 ± 0.16 | -1.97 ± 0.27
25 | AAUCAGCAAUAUUACGCAGU | -0.402 ± 0.066 | -0.257 ± 0.078
26 | UCGUAGCAAUAUUACGUAAA | -2.09 ± 0.2 | -0.594 ± 0.17
27 | CUCGAGCAAUAUUACGGCUU | -2.57 ± 0.47 | 
28 | AUUUAGCAAUAUUACGACUC | -0.866 ± 0.14 | 0.207 ± 0.16
29 | AGAAAGCAAUAUUACGCUUG | -2.37 ± 0.15 | -1.73 ± 0.18
30 | GAGGAGCAAUAUUACGGAAC | -3.68 ± 0.44 | -0.46 ± 0.28
31 | GAUAAGCAAUAUUACGAGUU | -2.26 ± 0.14 | -1.27 ± 0.16
32 | CAUCAGCAAUAUUACGUUAA | -2.79 ± 0.16 | -1.85 ± 0.17
33 | UUAUAGCAAUAUUACGAAGC | -2.27 ± 0.42 | 
34 | UCUAAGCAAUAUUACGAGAU |  | -0.699 ± 0.22
35 | GUGGAGCAAUAUUACGUUCA | -1.02 ± 0.11 | -0.668 ± 0.11
36 | UGCUAGCAAUAUUACGUUCC |  | -0.823 ± 0.42
37 | GUCAAGCAAUAUUACGGGUA | -2.91 ± 0.12 | -1.45 ± 0.076
38 | GAGGAGCAAUAUUACGGGCA | -1.33 ± 0.32 | -3.44 ± 0.47
39 | GUCGAGCAAUAUUACGCAUA | -2.14 ± 0.18 | -1.6 ± 0.16
40 | GUACAGCAAUAUUACGGGAA | -3.59 ± 0.25 | -2.24 ± 0.22
